According to US6083711, “Proteases compositions capable of binding to said site, and methods of use thereof” (SmithKline Beecham Corporation, dated 2000):

Target: the molecule itself
Assay: crystal structure, homodimer

| Protein | binding result |
| --- | --- |
| CMV A143V protease (enzyme) MTMDEQQSQAVAPVYVGGFLARYDQSPDEAELLLPRDVVEHWLHAQGQGQPSLSVALPLNINHDDTAVVGHVAAMQSVRDGLFCLGCVTSPRFLEIVRRASEKSELVSRGPVSPLQPDKVVEFLSGSYAGLSLSSRRCDDVEVATSLSGSETTPFKHVALCSVGRRRGTLAVYGRDPEWVTQRFPDLTAADRDGLRAQWQRCGSTAVDASGDPFRSDSYGLLGNSVDALYIRERLPKLRYDKQLVGVTERESYVKA | binds |
| unliganded HSV-2 protease (enzyme) MASAEMRERLEAPLPDRAVPIYVAGFLALYDSGDPGELALDPDTVRAALPPENPLPINVNHRARCEVGRVLAVVNDPRGPFFVGLIACVQLERVLETAASAAIFERRGPALSREERLLYLITNYLPSVSLSTKRRGDEVPPDRTLFAHVALCAIGRRLGTIVTYDTSLDAAIAPFRHLDPATREGVRREAAEAELALAGRTWAPGVEALTHTLLSTAVNNMMLRDRWSLVAERRRQAGIAGHTYLQA | binds |
| protease from delta9 LQAS-12aa ext H6(C) VZV (enzyme) MEALYVAGLYALYSKDEGELNITPEIVRSALPPTSKIPINIDHRKDCVVGEVIAIIEDIRGPFFLGIVRCPQLHAVLFEAAHSNFFGNRDSVLSPLERALYLVTNYLPSVSLSSKRLSPNEIPDGNFFTHVALCVVGRRVGTVVNYDCTPESSIEPFRVLSMESKARLLSLVKDYAGLNKVWKVSEDKLAKVLLSTAVNNMLLRDRWDVVAKRRREAGIMGHVYLQA | binds |
| HSV-1 protease (enzyme) MAADAPGDRMEEPLPDRAVPIYVAGFLALYDSGDSGELALDPDTVRAALPPDNPLPINVNHRAGCEVGRVLAVVDDPRGPFFVGLIACVQLERVLETAASAAIFERRGPPLSREERLLYLITNYLPSVSLATKRLGGEAHPDRTLFAHVALCAIGRRLGTIVTYDTGLDAAIAPFRHLSPASREGARRLAAEAELALSGRTWAPGVEALTHTLLSTAVNNMMLRDRWSLVAERRRQAGIAGHTYLQA | binds |
